# Measured values as given in US11434268B2, “Vascular endothelial growth factor antagonists” (The United States of America, as represented by the …, priority 2012, dated 2022).
# T1: NRP1 (Homo sapiens, UniProt O14786)
# T1 construct: purchased Sino Biologics
# T1 sequence (O14786 22-644 isoform O14786-2 limits assumed): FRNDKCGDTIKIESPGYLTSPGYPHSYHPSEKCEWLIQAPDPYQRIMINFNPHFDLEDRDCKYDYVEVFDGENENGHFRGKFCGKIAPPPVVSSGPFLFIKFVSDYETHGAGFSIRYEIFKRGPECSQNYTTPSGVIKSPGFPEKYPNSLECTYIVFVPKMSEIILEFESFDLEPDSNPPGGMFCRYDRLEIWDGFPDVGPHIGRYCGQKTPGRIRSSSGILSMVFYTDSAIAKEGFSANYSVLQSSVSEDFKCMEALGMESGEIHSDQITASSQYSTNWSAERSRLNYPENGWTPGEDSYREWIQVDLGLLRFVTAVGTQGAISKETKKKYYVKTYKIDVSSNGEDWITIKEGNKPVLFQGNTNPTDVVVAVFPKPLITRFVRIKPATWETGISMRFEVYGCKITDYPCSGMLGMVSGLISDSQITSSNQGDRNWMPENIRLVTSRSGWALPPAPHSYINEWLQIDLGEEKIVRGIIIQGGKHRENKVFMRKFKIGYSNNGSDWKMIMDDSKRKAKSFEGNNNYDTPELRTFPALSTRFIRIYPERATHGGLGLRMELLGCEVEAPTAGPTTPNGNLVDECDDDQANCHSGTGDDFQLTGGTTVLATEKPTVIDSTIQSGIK
# Legend:
# 293/KDR cells [1] = test: Proliferation of stably transfected 293/KDR cell lines in culture; type: cell-based; conditions: 293/KDR stable transfectants, days 3-5; p<0.001; FIG. 4E
# Procedure: (§1) For proliferation assays, 293/KDR derived cell lines (5×10^4 cellsper well) were seeded in 6-well culture plates in quadruplicate. Cell number per well was measured after 2, 3, 4, and 5 days of growth by removing cells with trypsin, collecting via centrifugation and counting suspended cells in triplicate in a Cellometer Automatic Cell Counter (Nexcelom Bioscience, Lawrence, Mass.). Purified recombinant VEGF-A protein used as an external standard quantitation as VEGF mass per mass total extracted cell protein. KDR autophosphorylation in cell lysates was measured similarly; cultured cells were serum-deprived for 48 h, where noted cells were stimulated for 20 min with WT or 3S VEGF-A alone or in combination at the indicated concentrations, then extracted with ice cold buffer containing non-ionic detergent, protease and phosphatase inhibitors. Cleared extracts were applied to assay plates and processing per the manufacturer's instructions.
# (§2) For proliferation assays, 293/KDR derived cell lines were seeded in 6-well culture plates in quadruplicate. Cell number per well was measured at regular intervals removal of adherent cells and counting in a Cellometer Automatic Cell Counter (Nexcelom Bioscience). Assays for colony formation in soft agar were performed as described (Castagnino et al., 2000).
# 293/KDR cells [2] = test: Soft agar colony formation (anchorage independent growth) of 293/KDR cells; type: cell-based; conditions: for soft agar colony formation by transfectants: 293/KDR cells stably transfected with expression plasmid, FIG. 4F; for inhibition of soft agar colony formation of 293/KDR cells stably transfected with VEGF165 WT: 3S protein at 0.06, 0.15 and 0.6 nM, pazopanib every other day at 0.3 and 3.0 nM over two weeks, FIG. 5C
# Procedure: as §2
# SoftAgar Colony Formation Assays for colony formation in soft agar (representative of anchorage independent growth) were performed and quantitated as described previously. Briefly, U87 MG cells and U87 MG cells transfected with a plasmid encoding NK1 60/62/73 were suspended in 0.5% Seaplaque agarose (1×10^5 cells) in growth medium in duplicate 60 mm dishes. Cell colonies were visualized after staining with p-iodotetrazolium violet by brightfield microscopy using an Olympus inverted microscope. Digital images were acquired and recorded using a CCD video camera and IP Lab software.
# 293/KDR cells [3] = test: KDR-driven tumorigenicity of 293/KDR transfectants implanted subcutaneously in mice; type: in vivo, SCID/Beige mice; conditions: 3×10^6 transfected 293/KDR cells per animal, subcutaneous, FIG. 5D
# Excerpt: Additional control groups received the empty vector 293/KDR cells (3×10^6 per animal) or the empty vector cells combined with VEGF WT transfectants at 1.5×10^6 cells each. The latter group indicated the growth rate of tumors arising from 1.5×10^6 VEGF WT transfectants in the presence of “neutral” cells providing the same initial mass; a growth rate below this threshold in the group implanted with VEGF WT+VEGF 3S transfectants could be attributed to inhibition of VEGF WT-driven tumor growth by VEGF165 3S.
# All experiments involving animals were performed in accordance with NIH Guidelines for Care and Use of Laboratory Animals using approved protocols. 293/KDR cells stably transfected with VEGF WT or 3S expression plasmids, or empty vector, were injected subcutaneously into SCID/Beige mice (Taconic, Inc.; 3×10^6 cells per animal total as indicated in the text, 5 mice/group) and tumor volumes were measured at regular intervals as described previously (Giubellino et al., 2007). Statistical analysis and curve fitting for all animal studies were performed using GraphPad Prism software version 5.0.
# To test whether 3S VEGF could antagonize KDR-driven tumorigenicity in mice, groups of animals (n=5) were implanted subcutaneously with WT VEFG transfected 293/KDR cells (3×10^6 per animal), with the same number of 3S VEGF transfected cells, or with a suspension containing half the number of cells of each type. Additional control groups received the empty vector 293/KDR cells (3×10^6 per animal) or the empty vector cells combined with WT VEGF transfectants at 1.5×10^6 cells each. The latter group indicted the growth rate of tumors arising from 1.5×10^6 WT VEGF transfectants in the presence of “neutral” cells providing the same initial mass; a growth rate below this threshold in the group implanted with WT VEGF+3S VEGF transfectants could be attributed to inhibition by 3S VEGF. […]
# [4] = Heparin-Sepharose mediated clustering (covalent affinity crosslinking); type: binding; conditions: conditioned media with Heparin Sepharose, BS3 crosslinking; FIG. 8
# Procedure: These findings further support the mechanism of action of VEGF 3S as antagonism of HS binding to the VEGF/VEGFR complex leading to instability of ligand/receptor/HS complexes and consequent disruption of downstream signaling.
# Covalent Affinity Crosslinking: Assays. […] Heparin Sepharose beads were used as both a source of heparin and to efficiently capture heparin-clustered VEGF from the conditioned media after crosslinking. Samples were then incubated with or without BS3 at room temperature for 1 h. After pelleting the beads by brief centrifugation, samples were obtained from the supernatants for SDS-PAGE and immunoblot analysis. The beads were then washed by five centrifugation/resuspension cycles in PBS, and bound proteins were eluted with boiling SDS-PAGE sample buffer. Supernatant and bead-captured samples were then resolved by SDS-PAGE under reducing conditions, transferred to PVDF and immunodetected with anti-VEGF antibody.
# [5] = tested on: Akt activation in SCC-25 cells, which express VEGFR1, R2 and R3; test: VEGF-A- or VEGF-D-induced Akt activation in SCC-25 cells; type: cell-based; conditions: FIG. 9C
# Procedure: SCC-25 cells express all three VEGFRs.
# (§3) Thus the pattern of VEGF 3S inhibition followed the pattern of VEGF-A binding to VEGFR1 and R2, but not homodimers of VEGFR3, as anticipated. […] VEGF 3s blocked Akt activation by VEGF-A (dark circles) or P1GF (squares). […] SCC-25 cells express all three VEGFRs.
# (§4) Immunoassays: KDR and VEGF content in cell lysates, tissue extracts and conditioned media was determined using 2-site electrochemiluminescent immunoassays developed for use with the Meso Scale Discovery (MSD) SectorImager 2400 plate reader (Gaithersburg, Md.). KDR activation in cell lysates or tumor tissue extracts included parallel detection with anti-receptor antibodies and specific anti-phospho-receptor antibodies or 4G10 (Millipore). Cell lysates were prepared similarly for analysis of activated (phospho-) Akt, and total Akt using immunoassays from MSD. All measurements were made on triplicate samples. GraphPad Prism software version 5.0 was used for all statistical analyses: protein content values determined by 2-site immunoassay were interpolated from standard curves by nonlinear regression analysis (4 parameter logistic equation); saturation and competitive binding curves were fit after determination of specific binding and assuming a one site binding model.
# [6] = tested on: Akt activation in EA.hy 926 cells, which express VEGFR1 and R2; test: VEGF- or PlGF-induced Akt activation (phospho-Akt/total Akt) in EA.hy 926 cells; type: cell-based; conditions: FIG. 9A
# Procedure: VEGF 3s blocked Akt activation by VEGF-A (dark circles) or P1GF (squares).
# as §3, §4
# NRP1 = biological target: T1, NRP1; test: Covalent affinity crosslinking analysis of NRP1 binding; conditions: NRP1-Fc, BS3 crosslinking, conditioned media; FIG. 10A
# Procedure: Purified recombinant NRP1-Fc (Sino Biologics) was added as indicated (−NRP1 or +NRP1) to 24 h conditioned media from vector transfected 293/KDR cells(left lanes), 293/KDR/VEGF 3S transfectants (middle lanes), or 293/KDR/VEGF WT transfectants (right lanes) in the absence (−) or presence (+) of the crosslinking reagent BS3 (Thermo Fisher Pierce). Samples were resolved by SDS-PAGE under reducing conditions, transferred to PVDF and immunodetected with anti-Fc antibody (top panel; Thermo Fisher Pierce) or anti-VEGF (lower panels; R&D Systems). A 160 kDa band, consistent with a 1:1 complex of NRP1-Fc and VEGF dimer, was detected by both antibodies specifically in the presence of NRP1-Fc in media from 293/KDR/VEGF 3S transfectants and 293/KDR/VEGF WT transfectants but not the vector control. […] Dimeric VEGF (44 kDa) is captured from both 293/KDR/VEGF 3S media and 293/KDR/VEGF WT media only in the presence of BS3 in the reducing SDS-PAGE conditions used.
# KDR [7] = biological target: T2, KDR (Homo sapiens, UniProt P35968); test: Antagonism of VEGF165 WT-stimulated KDR autophosphorylation in 293/KDR cells; type: cell-based; conditions: VEGF165 10 ng/ml, serum-deprived 293/KDR cells; mock-immunodepleted conditioned media containing 2.5-fold molar excess VEGF 3S protein; FIG. 5B
# T2 construct: host or cells: HEK293 (293/KDR)
# Procedure: FIG. 5B. […] The x-axis indicates the concentration of VEGF165 3S protein (ng/ml) in the conditioned media prior to immunodepletion.
# as §1, with “Cleared extracts were applied to assay plates and processing per the manufacturer's instructions.” left out
# Since the conditioned media could contain other inhibitors of KDR activation, VEGF165 3S was selectively removed from the media by immunodepletion with anti-VEGF antibody. A mock-immunodepletion was performed in parallel using a non-specific antibody and the VEGF165 3S content of the anti-VEGF and mock-immunodepleted media was measured (FIG. 5A). […]
# KDR [8] = biological target: T2, KDR; test: Basal KDR tyrosyl phosphorylation in stably transfected 293/KDR cells; type: cell-based; conditions: 293/KDR stable transfectants after 24 h serum deprivation; FIG. 4D
# Procedure: KDR autophosphorylation in cell lysates or tumor tissue extracts was measured similarly but included parallel detection with anti-receptor antibodies and specific anti-phospho-receptor antibodies or 4G10 (Millipore). […]
# KDR tyrosyl phosphorylation in each cell line was measured after 24 h of serum deprivation (FIG. 4D). […]
# Immunoassays: KDR and VEGF content in cell lysates, tissue extracts and conditioned media was determined using 2-site electrochemiluminescent immunoassays developed for use with the Meso Scale Discovery (MSD) SectorImager 2400 plate reader (Gaithersburg, Md.). […] GraphPad Prism software version 5.0 was used for all statistical analyses: protein content values determined by 2-site immunoassay were interpolated from standard curves by nonlinear regression analysis (4 parameter logistic equation); saturation and competitive binding curves were fit after determination of specific binding and assuming a one site binding model.
# T2 sequence (P35968 20-1356): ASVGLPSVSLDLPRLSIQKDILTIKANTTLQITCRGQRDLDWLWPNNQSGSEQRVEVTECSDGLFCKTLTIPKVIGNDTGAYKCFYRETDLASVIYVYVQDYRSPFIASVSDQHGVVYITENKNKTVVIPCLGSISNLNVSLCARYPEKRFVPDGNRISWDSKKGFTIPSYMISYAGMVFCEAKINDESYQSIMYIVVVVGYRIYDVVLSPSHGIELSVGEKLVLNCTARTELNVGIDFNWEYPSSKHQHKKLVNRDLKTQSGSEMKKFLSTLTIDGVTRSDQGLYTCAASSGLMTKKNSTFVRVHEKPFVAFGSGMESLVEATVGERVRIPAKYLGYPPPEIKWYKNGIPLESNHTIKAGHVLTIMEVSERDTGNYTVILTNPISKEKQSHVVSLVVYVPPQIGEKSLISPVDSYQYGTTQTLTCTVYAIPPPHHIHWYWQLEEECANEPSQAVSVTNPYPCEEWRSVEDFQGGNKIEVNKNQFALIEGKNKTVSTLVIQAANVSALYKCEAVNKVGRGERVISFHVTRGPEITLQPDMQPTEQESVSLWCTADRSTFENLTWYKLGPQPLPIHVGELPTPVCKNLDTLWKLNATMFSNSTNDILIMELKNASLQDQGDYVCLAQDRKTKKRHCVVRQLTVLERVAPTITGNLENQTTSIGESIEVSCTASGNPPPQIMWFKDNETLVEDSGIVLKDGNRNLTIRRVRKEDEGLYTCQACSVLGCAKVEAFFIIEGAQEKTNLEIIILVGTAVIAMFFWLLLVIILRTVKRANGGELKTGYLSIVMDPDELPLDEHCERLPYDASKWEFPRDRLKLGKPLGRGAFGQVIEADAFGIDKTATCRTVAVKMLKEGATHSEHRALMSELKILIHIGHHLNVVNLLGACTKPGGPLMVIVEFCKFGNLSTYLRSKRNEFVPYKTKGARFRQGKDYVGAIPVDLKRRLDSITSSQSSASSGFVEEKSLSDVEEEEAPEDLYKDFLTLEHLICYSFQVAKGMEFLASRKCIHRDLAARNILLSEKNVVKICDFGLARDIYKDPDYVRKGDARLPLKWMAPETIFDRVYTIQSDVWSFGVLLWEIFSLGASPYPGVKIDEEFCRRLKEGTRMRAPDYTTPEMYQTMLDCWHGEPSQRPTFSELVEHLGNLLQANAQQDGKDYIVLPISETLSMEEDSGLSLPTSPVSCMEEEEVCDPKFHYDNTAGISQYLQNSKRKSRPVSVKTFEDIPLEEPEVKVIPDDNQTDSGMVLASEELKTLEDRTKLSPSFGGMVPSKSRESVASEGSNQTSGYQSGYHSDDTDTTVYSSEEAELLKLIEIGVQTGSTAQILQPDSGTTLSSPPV
molecule,measurement,setting,value
VEGF165 WT: native mature human vascular endothelial growth factor A isoform of 165 amino acids,cell proliferation rate in culture,293/KDR cells [1],grew significantly faster
same,soft agar colony formation by transfectants,293/KDR cells [2],grew robustly
same,soft agar colony formation by transfectants,293/KDR cells [2]; listed as WT VEGF165,robust anchorage independent growth
same,tumor formation by implanted transfectants,293/KDR cells [3],formed tumors fastest
same,heparin-promoted clustering (oligomerization),[4],promoted clustering
"VEGF165 3S: human VEGF165 with opposite charge substitutions R123E/R124E/R159E in the mature protein (protein, listed as Homo sapiens) APMAEGGGQNHHEVVKFMDVYQRSYCHPIETLVDIFQEYPDEIEYIFKPSCVPLMRCGGCCNDEGLECVPTEESNITMQIMRIKPHQGQHIGEMSFLQHNKCECRPKKDRARQENPCGPCSEEEKHLFVQDPQTCKCSCKNTDSRCKARQLELNERTCECDKPRR",antagonism of Akt activation by VEGF-A,[5]; VEGF-A at 100 pM,antagonism
same,block of Akt activation induced by VEGF-D,[5]; VEGF-D at 1000 pM,did not block
same,inhibition of soft agar colony formation of 293/KDR cells stably transfected with VEGF165 WT,293/KDR cells [2],"significant, dose-dependent inhibition"
same,inhibition of soft agar colony formation of 293/KDR cells stably transfected with VEGF165 WT,293/KDR cells [2]; listed as 3S VEGF,substantial and dose-dependent inhibition
same,soft agar colony formation by transfectants,293/KDR cells [2],"grew modestly, if at all"
same,inhibition of PlGF-induced Akt activation (phospho-Akt/total Akt),[6],potency similar to pazopanib
same,inhibition of VEGF-A-induced Akt activation (phospho-Akt/total Akt),[6],blocked
same,inhibition of PlGF-induced Akt activation (phospho-Akt/total Akt),[6]; listed as VEGF 3s,blocked
same,binding to NRP1 in vitro,NRP1,bound similarly
same,inhibition of KDR autophosphorylation stimulated by purified VEGF165 protein,KDR [7],> 80%
same,tumor formation by implanted transfectants,293/KDR cells [3]; listed as 3S VEGF,tumors grew most slowly
same,tumor formation by implanted transfectants,293/KDR cells [3]; listed as VEGF 3S,did not form tumors prior to study termination
same,basal KDR phosphorylation level compared with empty vector transfectants,KDR [8],indistinguishable
